The target of this assay is Flag-tagged phosphor-mutant (AA: S1310A, S1379A) full-length human Tet3 (lentiviral) (human) (UniProt O43151). Kind of assay: co-IP; Tet3 KO mouse ESCs stably expressing Flag-tagged Wt or AA human Tet3; lysate in TBST buffer (50 mM Tris-HCl pH 7.4, 150 mM NaCl, 1 mM EDTA, 1% Triton X-100); IP overnight with anti-Flag M2 affinity gel or mouse IgG agarose, washed four times with TBST; blot for FLAG and H2A.Z.

On to “histone variant H2A.Z (endogenous, mouse ESCs) (from UniProt P0C0S6 1-128) (natural protein)”, for which the fold change of H2A.Z pulled down, against wild-type Tet3 worked out at 2 fold.

(Values after article PMC7026633.)
